Laboratory results published in publication PMC4192513, “A Novel Protein-Protein Interaction in the RES (REtention and Splicing) Complex*” (The Journal of Biological Chemistry, 2014).

B1: Bud13p peptide (residues 221-242) (peptide, UniProt P46947 221-242, looked up)
peptide: ENRFAIMPGSRWDGVHRSNGFE
notes: Bud13p, S. cerevisiae, residues 221-242; also called 22-mer Bud13p peptide; shorter Bud13p peptide; source: synthetic peptide, bought: Peptide Specialty Laboratories (Heidelberg), dialyzed
B2: Bud13p (residues 201-266) (domain or fragment)
chain: not shown
notes: also called 66-mer Bud13p peptide; very long Bud13p peptide; source: E. coli BL21(DE3) pLysS, purified (Ni-NTA, TEV cleavage, second Ni-NTA, SEC Superdex 75); not shown: His6, N-terminal, cleaved; GST, N-terminal, cleaved

Legend:
Snu17p (residues 1-113) [1] = biological target: T1, Snu17p (residues 1-113) (S. cerevisiae, UniProt P40565 1-113); test: ITC; VP-ITC, 25 °C, NMR buffer (20 mM sodium phosphate pH 6.3, 25 mM NaCl, 2 mM DTT or TCEP); Snu17p (residues 1-113) 30-70 uM in the cell, Bud13p ligands 0.6-1.1 mM in the syringe; one- or two-step binding models; conditions: both partners purified
T1 construct: 15N- or 15N/13C-labelled for NMR; also called Snu17p RRM with N-terminal unstructured extension; source: E. coli BL21(DE3) pLysS, purified (Ni-NTA, TEV cleavage, second Ni-NTA, SEC Superdex 75); not shown: His6, N-terminal, cleaved; GST, N-terminal, cleaved
T1 sequence (looked up): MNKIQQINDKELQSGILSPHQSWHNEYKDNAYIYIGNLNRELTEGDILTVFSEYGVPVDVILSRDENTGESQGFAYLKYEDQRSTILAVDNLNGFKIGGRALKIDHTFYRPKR

Snu17p (residues 1-113) [2] = biological target: T1, Snu17p (residues 1-113); test: NMR titration; 1H,15N correlation (HSQC) spectra of 15N-labelled Snu17p (residues 1-113) on addition of Bud13p peptides; 298 K; 20 mM sodium phosphate pH 6.3, 25 mM NaCl, 2 mM DTT or TCEP; conditions: both partners purified

| Binder | fold weaker dissociation constant than the longer Bud13p ligands (Snu17p (residues 1-113) [1]) [fold] | binding result (Snu17p (residues 1-113) [2]) |
| --- | --- | --- |
| B1 | 50 | – |
| B2 | – | binds |
